Data as given in patent publication CN107286237A.

How the values were obtained:
Test in all cases: SPR, BiaCore X-100, TRN1007 captured by goat anti-human IgG on CM5 chip, E2-core as analyte
[1] = molecular target: HCV包膜糖蛋白 HCV-E2-core 基因型2a (Hepatitis C virus genotype 2a)
[2] = molecular target: HCV包膜糖蛋白 HCV-E2-core 基因型4a (Hepatitis C virus genotype 4a)
[3] = molecular target: HCV包膜糖蛋白 HCV-E2-core 基因型6a (Hepatitis C virus genotype 6a)
[4] = molecular target: HCV包膜糖蛋白 HCV-E2-core 基因型7a (Hepatitis C virus genotype 7a)

B1: 全人源抗HCV单克隆中和抗体TRN1007 (antibody, V domains shown)
VH: EVQLVQSGAEVKKPGSSVKVSCKASGGSFRSYGFSWVRQAPGQGLEWMGRIIPAANFADYAPKFQDRVTISADKSTSTAYMELKSLRSDDTAVYYCARDQDLSGELTALYYYHGLDVWGQGTTVTVSS
VL: EIVLTQSPGTLSLSPGQRVTLSCRASQSVSNNYIAWYQQKPGQAPRLLISGASSRATGIPDRFSGTGSGTDFTLAISRLEPEDFAVYYCQQYGDSFWTFGQGTKVEIK
B1 showed a Kd [1] of 1.07 pM, a koff [1] of 8.63e-08 s⁻¹ and a kon [1] of 80500 M⁻¹ s⁻¹. The Kd [2] was 1.59 pM, the koff [2] was 7.17e-08 s⁻¹ and the kon [2] was 45100 M⁻¹ s⁻¹. For the same binder, the Kd [3] was 179 pM, the koff [3] was 5.36e-07 s⁻¹ and the kon [3] was 2990 M⁻¹ s⁻¹. For the same binder, the Kd [4] was 17.8 pM, the koff [4] was 1.68e-06 s⁻¹ and the kon [4] was 94400 M⁻¹ s⁻¹.
